Experimental data: patent US20170189519A1

Key:
Experiment in all cases: ELISA, coated CR6261, P. pastoris medium
Details in all cases: remark: other sources report otherwise
[1] = target: 272H2 (influenza A H1N1 A/Brisbane/59/2007)
[2] = target: 127A7 (influenza A H1N1 A/Brisbane/59/2007)
[3] = target: 239D2 (influenza A H1N1 A/Brisbane/59/2007)
[4] = target: 171E5 (influenza A H1N1 A/Brisbane/59/2007)
[5] = target: 194C8 (influenza A H1N1 A/Brisbane/59/2007)
[6] = target: 171F6 (influenza A H1N1 A/Brisbane/59/2007)
[7] = target: 137C5 (influenza A H1N1 A/Brisbane/59/2007)
[8] = target: 213C11 (influenza A H1N1 A/Brisbane/59/2007)
[9] = target: 216E5 (influenza A H1N1 A/Brisbane/59/2007)
[10] = target: 182H2 (influenza A H1N1 A/Brisbane/59/2007)
[11] = target: 134D3 (influenza A H1N1 A/Brisbane/59/2007)
[12] = target: 301F11 (influenza A H1N1 A/Brisbane/59/2007)
[13] = target: 233F11 (influenza A H1N1 A/Brisbane/59/2007)
[14] = target: 137C11 (influenza A H1N1 A/Brisbane/59/2007)
[15] = target: 131D5 (influenza A H1N1 A/Brisbane/59/2007)
[16] = target: 24782 (influenza A H1N1 A/Brisbane/59/2007)
[17] = target: 187H10 (influenza A H1N1 A/Brisbane/59/2007)
[18] = target: 214C4 (influenza A H1N1 A/Brisbane/59/2007)
[19] = target: 249B11 (influenza A H1N1 A/Brisbane/59/2007)
[20] = target: 148D5 (influenza A H1N1 A/Brisbane/59/2007)
[21] = target: 243D6 (influenza A H1N1 A/Brisbane/59/2007)
[22] = target: 220C9 (influenza A H1N1 A/Brisbane/59/2007)
[23] = target: 271F10 (influenza A H1N1 A/Brisbane/59/2007)
[24] = target: 104C4 (influenza A H1N1 A/Brisbane/59/2007)
[25] = target: 188G10 (influenza A H1N1 A/Brisbane/59/2007)
[26] = target: 134A3 (influenza A H1N1 A/Brisbane/59/2007)
[27] = target: 213B2 (influenza A H1N1 A/Brisbane/59/2007)
[28] = target: 115A1 (influenza A H1N1 A/Brisbane/59/2007)
[29] = target: 264G4 (influenza A H1N1 A/Brisbane/59/2007)
[30] = target: 252F5 (influenza A H1N1 A/Brisbane/59/2007)
[31] = target: 251C8 (influenza A H1N1 A/Brisbane/59/2007)
[32] = target: 284B9 (influenza A H1N1 A/Brisbane/59/2007)
[33] = target: 112G6 (influenza A H1N1 A/Brisbane/59/2007)
[34] = target: 113E7 (influenza A H1N1 A/Brisbane/59/2007)
[35] = target: 187C6 (influenza A H1N1 A/Brisbane/59/2007)

B1: CR6261 (antibody, V domains shown)
VH: EVQLVESGAEVKKPGSSVKVSCKASGGPFRSYAISWVRQAPGQGPEWMGGIIPIFGTTKYAPKFQGRVTITADDFAGTVYMELSSLRSEDTAMYYCAKHMGYQVRETMDVWGKGTTVTVSS
VL: QSVLTQPPSVSAAPGQKVTISCSGSSSNIGNDYVSWYQQLPGTAPKLLIYDNNKRPSGIPDRFSGSKSGTSATLGITGLQTGDEANYYCATWDRRPTAYVVFGGGTKLTVLG
CR6261 binding signal [1]: 263000 | CR6261 binding signal [2]: 233000 | CR6261 binding signal [3]: 570000 | CR6261 binding signal [4]: 880000 | CR6261 binding signal [5]: 242000 | CR6261 binding signal [6]: 140000 | CR6261 binding signal [7]: 296000 | CR6261 binding signal [8]: 667000 | CR6261 binding signal [9]: 335000 | CR6261 binding signal [10]: 110000 | CR6261 binding signal [11]: 304000 | CR6261 binding signal [12]: 117000 | CR6261 binding signal [13]: 583000 | CR6261 binding signal [14]: 417000 | CR6261 binding signal [15]: 345000 | CR6261 binding signal [16]: 415000 | CR6261 binding signal [17]: 299000 | CR6261 binding signal [18]: 302000 | CR6261 binding signal [19]: 145000 | CR6261 binding signal [20]: 329000 | CR6261 binding signal [21]: 132000 | CR6261 binding signal [22]: 1.09e+06 | CR6261 binding signal [23]: 315000 | CR6261 binding signal [24]: 521000 | CR6261 binding signal [25]: 143000 | CR6261 binding signal [26]: 532000 | CR6261 binding signal [27]: 132000 | CR6261 binding signal [28]: 1.18e+06 | CR6261 binding signal [29]: 181000 | CR6261 binding signal [30]: 422000 | CR6261 binding signal [31]: 270000 | CR6261 binding signal [32]: 1.66e+06 | CR6261 binding signal [33]: 544000 | CR6261 binding signal [34]: 966000 | CR6261 binding signal [35]: 345000
